Reference: US20250297019A1

Target: human CCR8 (human) (UniProt P51685)
Test: cell-based or functional assay

- IC50 of CCL1 blocking (Ca2+ influx, CHO/hCCR8.Gna15 cells): 17.6 nM
- induction fold at plateau (about 40 nM antibody), mFcgRIV Jurkat reporter with CHO/hCCR8: 13 fold
- induction fold, mFcgRIV Jurkat NFAT-luciferase reporter with CHO/hCCR8, at about 1 nM antibody: > 12 fold
B1: murine anti-human CCR8 mAb 433H (BD Biosciences) (antibody, from another filing, mouse IgG2a, V domains shown)
VH: EVQLVETGGGLVQPKGSLRLSCAASGFPFNTFAMNWVRQAPGKGLEWLARIRSKSNNYATYYADSVKDRFTISRDDSRRMLYLLMNNVKFEDTAIYYCVRGKENNYGYAMDYWGQGTSVTVSS
VL: DIVMTQAAPSVPVTPGESVSISCRSSQSLLHSNGNTYLYWFLQRPGQSPQLLIYRMSNLASGVPDRFSGSGSGTAFTLRISRVEAEDVGVYYCMQHLEYPFTFGIGTKLELKR
